Data: patent publication US20220315554A1, “COMPOUNDS COMPRISING A […] LIGAND AND USE THEREOF” (priority 2019, published 2022)
Numbered stars: 1 amine (or outer) side, 2 acyl side, 3 side chain; on linkers, the order of the positions; unused ones are H or OH. Bridge positions count the residues as written; N and C are the ends. Ends that are not written are not given here. * marks the point of attachment. Ttds = 1,13-diamino-4,7,10-trioxatridecan-succinamic acid, NCCCOCCOCCOCCCNC(=O)CCC(=O)*; tMeBn(DOTA-AET) = Cys-Cys bridge (thioethers) carrying DOTA-AET; tMeBn(DOTA-PP) = Cys-Cys bridge (thioethers) carrying DOTA-PP; DOTA = O=C(O)CN1CCN(CC(=O)O)CCN(CC(=O)*)CCN(CC(=O)O)CC1; mXylylene = c1cc(C[*:1])cc(C[*:2])c1; tMeBn(LuDOTA-AET) = not defined here; 2Lut = Cys-Cys bridge (thioethers); 3Lut = Cys-Cys bridge (thioethers); Pentanesulfonyl = CCCCCS(=O)(=O)*; PentylNH‑urea = CCCCCNC(=O)*; Hexanoyl = CCCCCC(=O)*

T1: Recombinant human FAP (R&D systems, #3715-SE) (human)
T1 sequence: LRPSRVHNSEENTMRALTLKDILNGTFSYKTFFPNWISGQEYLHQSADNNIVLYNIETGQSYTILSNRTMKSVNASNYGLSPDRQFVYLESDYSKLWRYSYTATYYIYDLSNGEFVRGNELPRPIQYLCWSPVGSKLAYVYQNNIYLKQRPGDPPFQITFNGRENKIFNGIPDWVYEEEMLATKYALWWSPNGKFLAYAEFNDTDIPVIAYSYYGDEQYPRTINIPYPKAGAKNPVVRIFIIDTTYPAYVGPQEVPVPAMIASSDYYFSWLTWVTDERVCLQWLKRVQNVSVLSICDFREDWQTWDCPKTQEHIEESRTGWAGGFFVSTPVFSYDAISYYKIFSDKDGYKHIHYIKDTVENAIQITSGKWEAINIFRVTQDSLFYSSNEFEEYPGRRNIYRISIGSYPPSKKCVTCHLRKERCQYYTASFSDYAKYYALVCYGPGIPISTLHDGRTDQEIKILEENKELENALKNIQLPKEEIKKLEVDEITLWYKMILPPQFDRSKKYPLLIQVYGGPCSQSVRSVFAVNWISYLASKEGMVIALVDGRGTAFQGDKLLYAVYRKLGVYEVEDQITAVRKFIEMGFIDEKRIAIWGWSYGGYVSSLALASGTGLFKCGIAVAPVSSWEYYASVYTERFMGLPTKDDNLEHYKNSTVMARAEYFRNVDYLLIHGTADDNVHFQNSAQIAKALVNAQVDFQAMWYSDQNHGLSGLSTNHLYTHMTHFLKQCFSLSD


Tests used:
[1] = biological target: T2, human fibroblast activation protein (FAP) on FAP-expressing human WI-38 fibroblasts (human); experiment: competition FACS, WI-38 cells, vs Cy5-labeled compound; A: pIC50 >8.0; details: remark: other sources report otherwise
[2] = biological target: T1, Recombinant human FAP (R&D systems, #3715-SE) (human)
[3] = biological target: T2, human fibroblast activation protein …; experiment: competition FACS, WI-38 cells, vs Cy5-labeled compound; D: pIC50 ≤6.0; details: remark: other sources report otherwise

pIC50 Category (Activity) [2] [pIC50]	Binder	other results
	Pentanesulfonyl-CPPTQFC-OH (linker 1-7 via tMeBn(DOTA-AET)) [Pentyl-SO2-[Cys(tMeBn(DOTA-AET))-Pro-Pro-Thr-Gln-Phe-Cys]-OH]	pIC50 Category (FACS) [1]: > 8 pIC50
> 8	Hexanoyl-CPPTQFCD (linker 1-7 via mXylylene; not fully specified (C-terminus); printed as Hex-[Cys(3MeBn)-Pro-Pro-Thr-Gln-Phe-Cys]-Asp-Ape(DOTA)) [Hex-[Cys(3MeBn)-Pro-Pro-Thr-Gln-Phe-Cys]-Asp-Ape-NH-DOTA']	
> 8	Hexanoyl-CPPTQFCD-NH2 (linker 1-7 via 2Lut) [Hex-[Cys(2Lut)-Pro-Pro-Thr-Gln-Phe-Cys]-Asp-NH2]	
> 8	Hexanoyl-CPPTQFCD (linker 1-7 via mXylylene; not fully specified (C-terminus); printed as Hex-[Cys(3MeBn)-Pro-Pro-Thr-Gln-Phe-Cys]-Asp-Ttds-Ape(DOTA)) [Hex-[Cys(3MeBn)-Pro-Pro-Thr-Gln-Phe-Cys]-Asp-Ttds-Ape-NH-DOTA']	
	Hexanoyl-CPPTQFC-OH (linker 1-7 via tMeBn(LuDOTA-AET); reading uncertain; also: Lu-DOTA complex, printed as Hex-[Cys(tMeBn(LuDOTA-AET))-Pro-Pro-Thr-Gln-Phe-Cys]-OH) [Hex-[Cys(tMeBn(LuDOTA-AET))-Pro-Pro-Thr-Gln-Phe-Cys]-OH]	pIC50 Category (FACS) [1]: > 8 pIC50
> 8	Ac-CPPTEFCDHFRD-NH2 (linker 1-7 via mXylylene; SMILES CC(=O)N[C@H]1CSCc2cccc(c2)CSC[C@@H](C(=O)N[C@@H](CC(=O)O)C(=O)N[C@@H](Cc2c[nH]cn2)C(=O)N[C@@H](Cc2ccccc2)C(=O)N[C@@H](CCCNC(=N)N)C(=O)N[C@@H](CC(=O)O)C(N)=O)NC(=O)[C@H](Cc2ccccc2)NC(=O)[C@H](CCC(=O)O)NC(=O)[C@H]([C@@H](C)O)NC(=O)[C@@H]2CCCN2C(=O)[C@@H]2CCCN2C1=O) [Ac-[Cys(3MeBn)-Pro-Pro-Thr-Glu-Phe-Cys]-Asp-His-Phe-Arg-Asp-NH2]	
	Hexanoyl-CPPTQFC-OH (linker 1-7 via tMeBn(InDOTA-AET); also: In-DOTA complex) [Hex-[Cys(tMeBn(InDOTA-AET))-Pro-Pro-Thr-Gln-Phe-Cys]-OH]	pIC50 Category (FACS) [1]: > 8 pIC50
> 8	CPPTQFCD (N-terminal Hex (hexanoyl); Cys1-Cys7 bridged by tMeBn(DOTA-AET) (thioethers); D-Asp8 (asp); C-terminal amide) [Hex-[Cys(tMeBn(DOTA-AET))-Pro-Pro-Thr-Gln-Phe-Cys]-asp-NH2]	
> 8	Hexanoyl-CPPTQFCD-NH2 (linker 1-7 via tMeBn(InDOTA-PP); also: In-DOTA complex) [Hex-[Cys(tMeBn(InDOTA-PP))-Pro-Pro-Thr-Gln-Phe-Cys]-Asp-NH2]	
> 8	Hexanoyl-CPPTQFCS-OH (linker 1-7 via tMeBn(DOTA-AET)) [Hex-[Cys(tMeBn(DOTA-AET))-Pro-Pro-Thr-Gln-Phe-Cys]-Ser-OH]	
	Hexanoyl-CPPTQFC-OH (linker 1-7 via tMeBn(DOTA-AET)) [Hex-[Cys(tMeBn(DOTA-AET))-Pro-Pro-Thr-Gln-Phe-Cys]-OH]	pIC50 Category (FACS) [1]: > 8 pIC50
> 8	Hexanoyl-CPPTEFC-NH2 (linker 1-7 via tMeBn(DOTA-AET)) [Hex-[Cys(tMeBn(DOTA-AET))-Pro-Pro-Thr-Glu-Phe-Cys]-NH2]	
> 8	Pentanesulfonyl-CPPTQFCD-NH2 (linker 1-7 via mXylylene; SMILES CCCCCS(=O)(=O)N[C@H]1CSCc2cccc(c2)CSC[C@@H](C(=O)N[C@@H](CC(=O)O)C(N)=O)NC(=O)[C@H](Cc2ccccc2)NC(=O)[C@H](CCC(N)=O)NC(=O)[C@H]([C@@H](C)O)NC(=O)[C@@H]2CCCN2C(=O)[C@@H]2CCCN2C1=O) [Pentyl-SO2-[Cys(3MeBn)-Pro-Pro-Thr-Gln-Phe-Cys]-Asp-NH2]	
> 8	Hexanoyl-CPPTEFCD-NH2 (linker 1-7 via mXylylene; SMILES CCCCCC(=O)N[C@H]1CSCc2cccc(c2)CSC[C@@H](C(=O)N[C@@H](CC(=O)O)C(N)=O)NC(=O)[C@H](Cc2ccccc2)NC(=O)[C@H](CCC(=O)O)NC(=O)[C@H]([C@@H](C)O)NC(=O)[C@@H]2CCCN2C(=O)[C@@H]2CCCN2C1=O) [Hex-[Cys(3MeBn)-Pro-Pro-Thr-Glu-Phe-Cys]-Asp-NH2]	pIC50 Category (FACS) [1]: > 8 pIC50
	Hexanoyl-CPPTQFC-NH2 (linker 1-7 via tMeBn(DOTA-AET)) [Hex-[Cys(tMeBn(DOTA-AET))-Pro-Pro-Thr-Gln-Phe-Cys]-NH2]	pIC50 Category (FACS) [1]: > 8 pIC50
> 8	Hexanoyl-CPPTQFCD-NH2 (linker 1-7 via tMeBn(GaDOTA-PP)) [Hex-[Cys(tMeBn(GaDOTA-PP))-Pro-Pro-Thr-Gln-Phe-Cys]-Asp-NH2]	
> 8	Hexanoyl-CPPTEFCDHFRD-NH2 (linker 1-7 via mXylylene; SMILES CCCCCC(=O)N[C@H]1CSCc2cccc(c2)CSC[C@@H](C(=O)N[C@@H](CC(=O)O)C(=O)N[C@@H](Cc2c[nH]cn2)C(=O)N[C@@H](Cc2ccccc2)C(=O)N[C@@H](CCCNC(=N)N)C(=O)N[C@@H](CC(=O)O)C(N)=O)NC(=O)[C@H](Cc2ccccc2)NC(=O)[C@H](CCC(=O)O)NC(=O)[C@H]([C@@H](C)O)NC(=O)[C@@H]2CCCN2C(=O)[C@@H]2CCCN2C1=O) [Hex-[Cys(3MeBn)-Pro-Pro-Thr-Glu-Phe-Cys]-Asp-His-Phe-Arg-Asp-NH2]	
> 8	Hexanoyl-CPPTQFCD-NH2 (linker 1-7 via tMeBn(DOTA-AET)) [Hex-[Cys(tMeBn(DOTA-AET))-Pro-Pro-Thr-Gln-Phe-Cys]-Asp-NH2]	
> 8	Hexanoyl-CPPTQFCD-NH2 (linker 1-7 via tMeBn(LuDOTA-PP); also: Lu-DOTA complex) [Hex-[Cys(tMeBn(LuDOTA-PP))-Pro-Pro-Thr-Gln-Phe-Cys]-Asp-NH2]	
> 8	Hexanoyl-CPPTQFCD-NH2 (linker 1-7 via mXylylene; SMILES CCCCCC(=O)N[C@H]1CSCc2cccc(c2)CSC[C@@H](C(=O)N[C@@H](CC(=O)O)C(N)=O)NC(=O)[C@H](Cc2ccccc2)NC(=O)[C@H](CCC(N)=O)NC(=O)[C@H]([C@@H](C)O)NC(=O)[C@@H]2CCCN2C(=O)[C@@H]2CCCN2C1=O) [Hex-[Cys(3MeBn)-Pro-Pro-Thr-Gln-Phe-Cys]-Asp-NH2]	
	Hexanoyl-CPPTQFC-OH (linker 1-7 via tMeBn(EuDOTA-AET); also: Eu-DOTA complex) [Hex-[Cys(tMeBn(EuDOTA-AET))-Pro-Pro-Thr-Gln-Phe-Cys]-OH]	pIC50 Category (FACS) [1]: > 8 pIC50
> 8	{PentylNH‑urea}-CPPTQFCD-NH2 (linker 1-7 via mXylylene; SMILES CCCCCNC(=O)N[C@H]1CSCc2cccc(c2)CSC[C@@H](C(=O)N[C@@H](CC(=O)O)C(N)=O)NC(=O)[C@H](Cc2ccccc2)NC(=O)[C@H](CCC(N)=O)NC(=O)[C@H]([C@@H](C)O)NC(=O)[C@@H]2CCCN2C(=O)[C@@H]2CCCN2C1=O) [PentylNH-urea-[Cys(3MeBn)-Pro-Pro-Thr-Gln-Phe-Cys]-Asp-NH2]	
	Hexanoyl-CAPTEFC-NH2 (linker 1-7 via mXylylene; SMILES CCCCCC(=O)N[C@H]1CSCc2cccc(c2)CSC[C@@H](C(N)=O)NC(=O)[C@H](Cc2ccccc2)NC(=O)[C@H](CCC(=O)O)NC(=O)[C@H]([C@@H](C)O)NC(=O)[C@@H]2CCCN2C(=O)[C@H](C)NC1=O) [Hex-[Cys(3MeBn)-Ala-Pro-Thr-Glu-Phe-Cys]-NH2]	pIC50 Category (FACS) [3]: < 6 pIC50
> 8	Hexanoyl-CPPTQFCD-NH2 (linker 1-7 via 3Lut) [Hex-[Cys(3Lut)-Pro-Pro-Thr-Gln-Phe-Cys]-Asp-NH2]	
> 8	Hexanoyl-CPPTQFCD-NH2 (linker 1-7 via tMeBn(EuDOTA-PP); also: Eu-DOTA complex) [Hex-[Cys(tMeBn(EuDOTA-PP))-Pro-Pro-Thr-Gln-Phe-Cys]-Asp-NH2]	
> 8	{DOTA-Ttds}-LCPPTEFCDHFRD-NH2 (linker 2-8 via mXylylene) [DOTA-Ttds-Leu-[Cys(3MeBn)-Pro-Pro-Thr-Glu-Phe-Cys]-Asp-His-Phe-Arg-Asp-NH2]	
> 8	Hexanoyl-CPPTQFCD-OH (linker 1-7 via tMeBn(DOTA-AET)) [Hex-[Cys(tMeBn(DOTA-AET))-Pro-Pro-Thr-Gln-Phe-Cys]-Asp-OH]	
> 8	Pentanesulfonyl-CPPTQFCD-NH2 (linker 1-7 via tMeBn(DOTA-PP)) [Pentyl-SO2-[Cys(tMeBn(DOTA-PP))-Pro-Pro-Thr-Gln-Phe-Cys]-Asp-NH2]	
	Hexanoyl-CPPTQFC-NH2 (linker 1-7 via tMeBn(InDOTA-AET); also: In-DOTA complex) [Hex-[Cys(tMeBn(InDOTA-AET))-Pro-Pro-Thr-Gln-Phe-Cys]-NH2]	pIC50 Category (FACS) [1]: > 8 pIC50
